Measured values as given in patent US20190248902A1 (published 2019).
Where a chain is given by its changes, count along the chain named.

T1: human ASGR-1 (wild type) (human, UniProt P07306 1-291)
T1 construct: also called wt ASGR1; huASGR-1
T1 sequence: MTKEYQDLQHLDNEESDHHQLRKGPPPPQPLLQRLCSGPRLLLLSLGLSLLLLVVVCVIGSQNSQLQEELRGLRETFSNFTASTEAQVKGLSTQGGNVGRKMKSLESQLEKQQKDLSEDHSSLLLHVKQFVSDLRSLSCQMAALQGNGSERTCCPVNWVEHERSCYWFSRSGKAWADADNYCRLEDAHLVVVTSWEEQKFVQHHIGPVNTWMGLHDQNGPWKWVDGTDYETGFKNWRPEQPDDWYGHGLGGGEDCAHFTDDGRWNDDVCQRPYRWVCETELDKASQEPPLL

T2: human ASGR-1 mutant construct H203 (human, UniProt P07306 1-291)
T2 construct: Arg/Glu scanning: non-arginine residues were changed to arginine; Transiently expressed on CHO-S cells
T2 sequence: T1 sequence with H203R

B1: 6G7 (antibody, V domains shown)
VH: QVQLVESGGGVVQPGRSLRLSCAASGFTFSSYGMHWVRQTPGKGLEWVAIISYVGKNKYYADSVKGRFTISRDNSKNTLYLQMNSLRAEDTAVYYCARRGNSYGGYGMDVWGQGTTVTVSS
VL: DIQMTQSPSSRSASVGDRVTITCQASQDISNYLNWCQQKPGKALKLLIYDASTLETGVPSRFSGSGSGTDFTFTISSVQPEDIATYYCQQYDNVPITFGQGTRLEIK
notes: mAb
B2: 7E11 (antibody, V domains shown)
VH: QVQLVESGGGVVQPGRSLRLSCAASGFTFSSFGMHWVRQAPGKGLEWVAIIWHDGSNKYYADSVKGRFTISRDNSNNTLYLQMSSLRAEDTAVYYCARDLSMGGMDVWGQGTTVTVSS
VL: DIQMTQSPSSLSASVGDRVTIACRASQNIISYLNWYQQKPGKAPKFLIYTASSLQSGVPSRFSGSGSGTDFTLTISSLQPEDFAIYYCQQTYSTPLTFGGGTKVEIK
notes: mAb
B3: 4A2 (antibody, V domains shown)
VH: QVQLVQSGTEVKKPGASVKVSCKASGYTFTNYDINWVRQATGQGLEWMGWMHPNSGNTGYAQKFQGRVTLTRNTSISTAYMELSSLRSEDTAVYYCASSSGWYYFDYWGQGTLVTVSS
VL: DIVMTQSPDSLAVSLGERATINCKSSQSILHSSNNNNYLAWFQQKPGQPPKLLLYWASTRESGVPDRFSGSGSGTDFTLTISSLQPEDVAVYYCQQYYNTPVTFGPGTKVGIK
notes: mAb
B4: 25A4 (antibody, V domains shown)
VH: B3 VH with Q3L, T9A, K13R, H52Y, L70M
VL: DIVMTQFPDSLAVSLGERATIKCKSSQSVLYSSHNNNYLAWYQQKPGQPPKLLLYWASTRESGVPDRFSGSGSGTEFTLTISSLEAEDVAVYYCQQYYSTPPTFGQGTKVEIK
notes: mAb
B5: 26C4 (antibody, V domains shown)
VH: B3 VH with T9A, T41S, H52N, K63R, L70M, S77N
VL: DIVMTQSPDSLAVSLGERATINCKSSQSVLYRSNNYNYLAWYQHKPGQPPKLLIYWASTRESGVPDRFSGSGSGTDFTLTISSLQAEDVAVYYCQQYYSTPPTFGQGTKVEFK
notes: mAb
B6: 29H8 (antibody, V domains shown)
VH: B3 VH with T9A, K12Q, H52N, K63R, L70M, T78A
VL: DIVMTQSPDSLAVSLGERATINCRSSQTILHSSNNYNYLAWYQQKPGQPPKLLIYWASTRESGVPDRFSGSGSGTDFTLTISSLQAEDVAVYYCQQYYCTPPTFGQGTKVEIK
notes: mAb
B7: 56E5 (antibody, V domains shown)
VH: QVQLVQSGAEVKKPGASVKVSCQASGYTFTGYHMHWVRQAPGQGLEWMGWINPNNNATNYAQKFQGRVTMTRDTSISTAYMELRRLRSDDTAVYHCARDGTSSFDYWGQGTLVTVSS
VL: DIQMTQSPSSVSASVGDRVTITCRASQGIRKWLAWYQQKPGKAPKLLIYAASSLQSGVPSRFSGSGSGTDFTLTISSLQPEDFATYYCQQANSFPFTFGPGTKVDIK
notes: mAb
B8: 5E5 (antibody, V domains shown)
VH: QVQLVESGGGVVQPGRSLRLSCAASGFTFSNYVMHWVRQAPGKGLEWVAVIWYDGSNKYYADSVKGRFTISRDNSKNTLYLQMNSLRAEDTAVYYCTREVYSSGWYDYGMDVWGQGTTVTVSS
VL: DIQMTQSPSSLSASVGDRVTITCRASQGIRNDLGWYQQKPGKAPKRLIYAASSLQSGVPSRFSGSGSGTEFTLTISSLQPEDFATYYCLQHYSYPRTFGQGTKVEVK
notes: mAb
B9: 7G4 (antibody, V domains shown)
VH: B8 VH with S30N, N84T, T97A, V100K, G104N
VL: B8 VL with K39R, F83S, Q90H, H91Q, V106I
notes: mAb

molecular target: T1, human ASGR-1 (wild type); assay: FACS, transfected CHO-S cells, mAb 5 ug/ml
Outline: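 Transiently transfected CHO-S cells expressing wild-type or mutant hASGR-1 incubated with antibody at 5 ug/ml, 1 h at 4 °C; bound antibody detected by Alexa Fluor 647 anti-Fc plus 7-AAD, by flow cytometry. Binding normalized to expression using an unaffected antibody (65C12), then to wild type; hits defined as >3× IQR above third quartile.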

FACS Binding Geomean	Binder
38600	B1
45500	B2
41100	B3
55600	B4
46000	B5
40900	B6
42600	B7
40700	B8
48500	B9

molecular target: T1, human ASGR-1 (wild type); assay: FACS ratio: 65C12 geomean / this mAb geomean
Outline: (§1)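 Value is the geomean of reference antibody 65C12 divided by that of the test mAb, correcting for construct expression. Binding was measured by flow cytometry on transiently transfected CHO-S cells after 1 h at 4 °C with antibody at 5 ug/ml. Detection used an anti-Fc Alexa 647 secondary, with 7-AAD to exclude dead cells.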

Expression Normalization to mAb 65C12	Binder
1.45	B1
1.23	B2
1.36	B3
1.01	B4
1.22	B5
1.37	B6
1.32	B7
1.38	B8
1.16	B9

molecular target: T2, human ASGR-1 mutant construct H203; assay: FACS ratio: 65C12 geomean / this mAb geomean
Outline: as §1

Expression Normalization to mAb 65C12	Binder
1.71	B1
1.75	B2
1.36	B3
1.29	B4
1.91	B5
1.95	B6
1.27	B7
2.04	B8
1.39	B9
